Results as given in US20200262877A1, “ION CHANNEL-BINDING PEPTIDES AND METHODS OF USE THEREOF” (priority 2017, published 2020).

Experiments:
GABA = assay: Ion channel panel (IonWorks Barracuda): GABA; format: cell-based; conditions: 100% = no change, <100% = inhibition
Procedure, shortened: (§1)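 Transfected HEK293 or CHO cells were exposed for at least 5 min to peptides at 200 nM and 20 μM final, tested in duplicate, in HEPES-buffered physiological saline. Activation was taken as peptide-plus-agonist current over control current ×100, and inhibition as 1 minus that ratio ×100. Each channel's control was its own reference compound.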

TRPA1 = biological target: T1, TRPA1 (Homo sapiens, UniProt O75762); assay: Ion channel panel (IonWorks Barracuda): TRPA1; format: cell-based; conditions: 100% = no change, <100% = inhibition
T1 construct: host or cells: HEK293 or CHO
Procedure, shortened: as §1

α4β2 = biological target: T2, α4β2 (Homo sapiens, UniProt P17787+P43681); assay: Ion channel panel (IonWorks Barracuda): α4β2; format: cell-based; conditions: 100% = no change, <100% = inhibition
T2 construct: host or cells: HEK293 or CHO
Procedure, shortened: as §1

5HT3a = biological target: T3, 5HT3a (Homo sapiens, UniProt P46098); assay: Ion channel panel (IonWorks Barracuda): 5HT3a; format: cell-based
T3 construct: host or cells: HEK293 or CHO
T3 sequence (P46098 whole entry, looked up): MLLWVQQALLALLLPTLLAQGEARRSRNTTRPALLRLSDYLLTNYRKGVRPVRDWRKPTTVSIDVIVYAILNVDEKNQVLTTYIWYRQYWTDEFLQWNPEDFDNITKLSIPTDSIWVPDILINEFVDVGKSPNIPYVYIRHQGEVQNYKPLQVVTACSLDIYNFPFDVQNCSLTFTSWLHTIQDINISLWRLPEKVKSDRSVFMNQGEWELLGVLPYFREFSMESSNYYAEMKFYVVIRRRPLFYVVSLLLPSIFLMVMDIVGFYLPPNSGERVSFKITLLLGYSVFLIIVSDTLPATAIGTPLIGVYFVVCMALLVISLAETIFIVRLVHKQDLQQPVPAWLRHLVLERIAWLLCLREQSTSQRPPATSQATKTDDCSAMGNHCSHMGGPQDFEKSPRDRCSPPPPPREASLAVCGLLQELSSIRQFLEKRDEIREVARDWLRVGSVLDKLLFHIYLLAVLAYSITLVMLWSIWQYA
Procedure, shortened: as §1

Kv1.1 = biological target: T4, Kv1.1 (Homo sapiens, UniProt Q09470); assay: cell-based; format: cell-based; conditions: 100% = no change, <100% = inhibition
T4 construct: host or cells: HEK293 or CHO
Procedure, shortened: as §1

Kv1.2 = biological target: T5, Kv1.2 (Homo sapiens, UniProt P16389); assay: cell-based; format: cell-based; conditions: 100% = no change, <100% = inhibition
T5 construct: host or cells: HEK293 or CHO
Procedure, shortened: as §1

Kv1.3 = biological target: T6, Kv1.3 (Homo sapiens, UniProt P22001); assay: cell-based; format: cell-based; conditions: 100% = no change, <100% = inhibition
T6 construct: host or cells: HEK293 or CHO
Procedure, shortened: as §1

α3β4 = biological target: T7, α3β4 (Homo sapiens, UniProt P30926+P32297); assay: Ion channel panel (IonWorks Barracuda): α3β4; format: cell-based; conditions: 100% = no change, <100% = inhibition
T7 construct: host or cells: HEK293 or CHO
Procedure, shortened: as §1

NR2B = biological target: T8, NR2B (Homo sapiens, UniProt Q13224); assay: Ion channel panel (IonWorks Barracuda): NR2B; format: cell-based; conditions: 100% = no change, <100% = inhibition
T8 construct: host or cells: HEK293 or CHO
Procedure, shortened: as §1

Cav2.2 = biological target: T9, Cav2.2 (Homo sapiens, UniProt Q00975); assay: cell-based; conditions: 100% = no change, <100% = inhibition
T9 construct: host or cells: HEK293 or CHO
Procedure, shortened: as §1

Kv2.1 = biological target: T10, Kv2.1 (Homo sapiens, UniProt Q14721); assay: cell-based; conditions: 100% = no change, <100% = inhibition
T10 construct: host or cells: HEK293 or CHO
Procedure, shortened: as §1

Cav2.1 = biological target: T11, Cav2.1 (Homo sapiens, UniProt O00555); assay: cell-based; conditions: 100% = no change, <100% = inhibition
T11 construct: host or cells: HEK293 or CHO
Procedure, shortened: as §1

Kir2.1 = biological target: T12, Kir2.1 (Homo sapiens, UniProt P63252); assay: Ion channel panel (IonWorks Barracuda): Kir2.1; format: cell-based; conditions: 100% = no change, <100% = inhibition
T12 construct: host or cells: HEK293 or CHO
Procedure, shortened: as §1

hERG = hERG (Homo sapiens, UniProt Q12809); assay: in vitro; conditions: 100% = no change, <100% = inhibition
hERG, sequence (Q12809 whole entry): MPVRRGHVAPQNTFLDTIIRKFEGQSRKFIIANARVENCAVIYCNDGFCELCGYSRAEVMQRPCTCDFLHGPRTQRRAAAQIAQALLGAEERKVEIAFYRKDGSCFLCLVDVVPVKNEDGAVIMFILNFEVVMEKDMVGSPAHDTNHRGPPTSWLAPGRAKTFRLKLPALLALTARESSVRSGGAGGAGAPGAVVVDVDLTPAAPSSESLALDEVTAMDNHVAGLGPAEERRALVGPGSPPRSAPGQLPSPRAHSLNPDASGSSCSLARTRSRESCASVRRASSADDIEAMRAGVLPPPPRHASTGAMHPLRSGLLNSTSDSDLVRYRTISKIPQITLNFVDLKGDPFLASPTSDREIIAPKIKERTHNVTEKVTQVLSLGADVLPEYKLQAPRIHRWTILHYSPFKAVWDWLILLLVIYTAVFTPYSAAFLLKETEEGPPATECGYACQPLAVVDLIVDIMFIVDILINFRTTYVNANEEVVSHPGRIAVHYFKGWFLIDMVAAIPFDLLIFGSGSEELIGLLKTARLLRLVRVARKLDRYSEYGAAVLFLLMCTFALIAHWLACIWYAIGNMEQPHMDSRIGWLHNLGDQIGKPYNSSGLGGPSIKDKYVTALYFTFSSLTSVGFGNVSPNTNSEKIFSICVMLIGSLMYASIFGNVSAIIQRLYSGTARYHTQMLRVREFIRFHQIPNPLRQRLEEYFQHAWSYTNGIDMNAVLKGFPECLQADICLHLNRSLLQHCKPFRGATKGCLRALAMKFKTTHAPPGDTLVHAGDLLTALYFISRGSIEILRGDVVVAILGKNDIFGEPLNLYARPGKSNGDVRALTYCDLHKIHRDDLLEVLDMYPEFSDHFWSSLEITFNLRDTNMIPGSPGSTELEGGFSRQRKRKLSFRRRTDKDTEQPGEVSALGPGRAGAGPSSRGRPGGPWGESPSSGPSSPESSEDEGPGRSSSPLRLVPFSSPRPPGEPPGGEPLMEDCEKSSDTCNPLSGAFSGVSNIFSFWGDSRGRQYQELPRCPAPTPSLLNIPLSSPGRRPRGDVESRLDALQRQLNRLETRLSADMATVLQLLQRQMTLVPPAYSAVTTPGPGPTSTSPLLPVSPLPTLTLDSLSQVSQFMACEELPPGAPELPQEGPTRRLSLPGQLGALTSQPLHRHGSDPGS
Procedure, shortened: as §1

Nav1.5 = Nav1.5 (Homo sapiens, UniProt Q14524); assay: in vitro; conditions: 100% = no change; for Activity of Nav1.5 with peptide, expressed as a percentage of the reference compound: peptide at 0.2 μM; for Activity of Nav1.5 with peptide (percentage of the reference compound): peptide at 20 μM
Nav1.5, sequence (Q14524 whole entry): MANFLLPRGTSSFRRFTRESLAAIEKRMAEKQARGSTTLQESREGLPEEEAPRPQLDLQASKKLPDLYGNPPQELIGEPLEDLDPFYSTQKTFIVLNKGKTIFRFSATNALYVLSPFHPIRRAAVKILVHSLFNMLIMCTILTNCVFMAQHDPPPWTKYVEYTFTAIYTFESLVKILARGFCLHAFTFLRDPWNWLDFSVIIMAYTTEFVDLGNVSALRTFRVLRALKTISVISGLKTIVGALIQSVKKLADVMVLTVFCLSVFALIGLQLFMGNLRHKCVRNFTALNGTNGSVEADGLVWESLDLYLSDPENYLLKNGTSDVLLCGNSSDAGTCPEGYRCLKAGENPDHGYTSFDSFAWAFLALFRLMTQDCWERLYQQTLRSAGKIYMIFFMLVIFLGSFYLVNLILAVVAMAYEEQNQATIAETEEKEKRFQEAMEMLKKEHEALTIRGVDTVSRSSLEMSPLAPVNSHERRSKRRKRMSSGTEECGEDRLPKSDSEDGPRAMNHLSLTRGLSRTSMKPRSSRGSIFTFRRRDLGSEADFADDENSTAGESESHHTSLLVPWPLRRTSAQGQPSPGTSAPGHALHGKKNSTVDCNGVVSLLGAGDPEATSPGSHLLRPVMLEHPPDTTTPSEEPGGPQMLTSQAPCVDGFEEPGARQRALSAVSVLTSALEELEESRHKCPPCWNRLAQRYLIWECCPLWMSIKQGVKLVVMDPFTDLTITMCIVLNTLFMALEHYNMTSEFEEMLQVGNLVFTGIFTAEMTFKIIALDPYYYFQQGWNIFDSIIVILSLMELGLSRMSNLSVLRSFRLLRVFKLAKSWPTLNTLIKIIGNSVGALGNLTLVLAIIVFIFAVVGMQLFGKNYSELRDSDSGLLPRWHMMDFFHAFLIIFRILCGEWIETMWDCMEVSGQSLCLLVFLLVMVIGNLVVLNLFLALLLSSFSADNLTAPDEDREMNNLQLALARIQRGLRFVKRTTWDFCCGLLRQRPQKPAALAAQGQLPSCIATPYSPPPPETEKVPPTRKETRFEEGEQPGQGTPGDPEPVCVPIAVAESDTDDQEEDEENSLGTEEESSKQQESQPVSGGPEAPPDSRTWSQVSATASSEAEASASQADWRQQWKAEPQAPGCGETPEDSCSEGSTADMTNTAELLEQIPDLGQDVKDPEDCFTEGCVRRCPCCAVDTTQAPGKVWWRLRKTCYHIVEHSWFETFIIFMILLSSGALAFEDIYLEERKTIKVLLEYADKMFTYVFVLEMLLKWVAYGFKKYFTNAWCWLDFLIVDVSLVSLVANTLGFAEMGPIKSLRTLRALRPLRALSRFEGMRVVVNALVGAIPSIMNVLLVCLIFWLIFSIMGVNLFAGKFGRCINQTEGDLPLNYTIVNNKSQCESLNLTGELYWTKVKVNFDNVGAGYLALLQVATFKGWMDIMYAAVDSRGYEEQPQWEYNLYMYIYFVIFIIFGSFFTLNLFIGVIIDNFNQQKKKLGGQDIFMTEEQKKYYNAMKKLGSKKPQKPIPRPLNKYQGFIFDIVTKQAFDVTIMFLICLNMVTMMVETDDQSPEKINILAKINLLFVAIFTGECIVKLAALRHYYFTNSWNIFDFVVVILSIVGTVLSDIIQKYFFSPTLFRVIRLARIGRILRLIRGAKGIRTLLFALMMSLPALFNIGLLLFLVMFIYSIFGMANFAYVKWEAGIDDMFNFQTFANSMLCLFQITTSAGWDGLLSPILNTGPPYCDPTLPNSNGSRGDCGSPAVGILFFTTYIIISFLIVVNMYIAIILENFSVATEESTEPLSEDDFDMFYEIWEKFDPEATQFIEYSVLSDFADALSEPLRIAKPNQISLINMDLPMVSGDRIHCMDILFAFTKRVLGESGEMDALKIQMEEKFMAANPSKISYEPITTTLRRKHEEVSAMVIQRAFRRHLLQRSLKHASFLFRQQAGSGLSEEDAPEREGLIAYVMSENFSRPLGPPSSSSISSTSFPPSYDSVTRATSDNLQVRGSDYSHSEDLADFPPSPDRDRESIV
Procedure, shortened: as §1

Nav1.7 = biological target: T13, Nav1.7 (Homo sapiens, UniProt Q15858); assay: cell-based; format: cell-based; conditions: 100% = no change; for Activity of Nav1.7 with peptide, expressed as a percentage of the reference compound: peptide at 0.2 μM; for Activity of Nav1.7 with peptide (percentage of the reference compound): peptide at 20 μM
T13 construct: host or cells: HEK293 or CHO
T13 sequence (Q15858 whole entry): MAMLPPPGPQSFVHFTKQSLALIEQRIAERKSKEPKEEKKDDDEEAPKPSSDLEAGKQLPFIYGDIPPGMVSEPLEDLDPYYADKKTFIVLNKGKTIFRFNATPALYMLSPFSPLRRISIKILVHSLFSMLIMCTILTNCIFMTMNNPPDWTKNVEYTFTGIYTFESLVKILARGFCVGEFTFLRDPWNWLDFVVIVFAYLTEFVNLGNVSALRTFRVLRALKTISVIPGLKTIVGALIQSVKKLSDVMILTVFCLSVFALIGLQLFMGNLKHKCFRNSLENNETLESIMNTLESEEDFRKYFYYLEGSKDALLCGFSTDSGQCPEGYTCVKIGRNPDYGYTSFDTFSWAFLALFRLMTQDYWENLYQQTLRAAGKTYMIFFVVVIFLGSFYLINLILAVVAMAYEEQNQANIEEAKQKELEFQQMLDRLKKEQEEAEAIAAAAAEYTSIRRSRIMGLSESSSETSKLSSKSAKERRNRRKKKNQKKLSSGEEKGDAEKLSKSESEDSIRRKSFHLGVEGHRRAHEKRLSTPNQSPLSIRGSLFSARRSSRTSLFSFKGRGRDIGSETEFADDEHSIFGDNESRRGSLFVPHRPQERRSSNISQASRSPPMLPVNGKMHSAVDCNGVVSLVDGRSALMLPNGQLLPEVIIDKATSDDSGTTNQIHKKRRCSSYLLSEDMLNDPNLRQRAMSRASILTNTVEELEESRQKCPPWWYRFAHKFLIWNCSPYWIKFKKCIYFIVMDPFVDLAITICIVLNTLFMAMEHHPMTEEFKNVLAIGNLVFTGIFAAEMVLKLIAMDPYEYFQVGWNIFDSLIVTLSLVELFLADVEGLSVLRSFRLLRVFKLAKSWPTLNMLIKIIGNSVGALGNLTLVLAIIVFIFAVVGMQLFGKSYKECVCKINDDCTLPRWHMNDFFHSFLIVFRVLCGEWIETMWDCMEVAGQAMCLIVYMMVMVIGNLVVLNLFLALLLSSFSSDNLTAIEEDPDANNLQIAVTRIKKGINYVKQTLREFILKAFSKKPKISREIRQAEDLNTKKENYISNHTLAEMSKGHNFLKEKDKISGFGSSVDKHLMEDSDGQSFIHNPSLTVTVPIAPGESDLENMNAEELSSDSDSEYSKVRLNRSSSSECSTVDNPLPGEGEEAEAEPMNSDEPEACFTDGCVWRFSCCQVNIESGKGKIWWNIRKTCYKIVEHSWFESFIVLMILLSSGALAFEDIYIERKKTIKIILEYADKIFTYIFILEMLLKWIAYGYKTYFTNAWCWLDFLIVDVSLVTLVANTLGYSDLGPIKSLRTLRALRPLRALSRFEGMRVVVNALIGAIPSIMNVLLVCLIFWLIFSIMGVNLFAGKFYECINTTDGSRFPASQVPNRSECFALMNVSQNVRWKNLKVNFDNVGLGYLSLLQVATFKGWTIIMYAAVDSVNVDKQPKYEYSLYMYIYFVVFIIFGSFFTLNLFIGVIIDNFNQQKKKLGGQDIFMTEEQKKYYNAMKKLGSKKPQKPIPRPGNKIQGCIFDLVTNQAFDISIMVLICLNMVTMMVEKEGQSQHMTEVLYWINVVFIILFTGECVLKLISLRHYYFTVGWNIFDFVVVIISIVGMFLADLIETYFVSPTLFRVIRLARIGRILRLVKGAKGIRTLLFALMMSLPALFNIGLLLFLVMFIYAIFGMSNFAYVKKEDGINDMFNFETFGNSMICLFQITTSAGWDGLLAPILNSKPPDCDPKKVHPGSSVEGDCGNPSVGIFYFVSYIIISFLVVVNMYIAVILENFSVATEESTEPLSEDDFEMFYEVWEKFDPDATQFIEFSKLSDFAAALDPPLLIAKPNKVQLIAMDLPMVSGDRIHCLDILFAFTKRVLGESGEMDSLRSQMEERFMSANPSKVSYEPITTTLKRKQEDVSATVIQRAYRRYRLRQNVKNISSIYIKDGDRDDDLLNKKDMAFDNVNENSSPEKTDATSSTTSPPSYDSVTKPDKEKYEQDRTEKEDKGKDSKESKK

NR2A = biological target: T14, NR2A (Homo sapiens, UniProt Q12879); assay: Ion channel panel (IonWorks Barracuda): NR2A; format: cell-based; conditions: 100% = no change, <100% = inhibition
T14 construct: host or cells: HEK293 or CHO
Procedure, shortened: as §1

TRPV1 = biological target: T15, TRPV1 (Homo sapiens, UniProt Q8NER1); assay: Ion channel panel (IonWorks Barracuda): TRPV1; format: cell-based; conditions: 100% = no change, <100% = inhibition
T15 construct: host or cells: HEK293 or CHO
Procedure, shortened: as §1

[1] = first of two Nav1.5 columns (probably TP1)
[2] = second of two Nav1.5 columns (probably TP2)
[3] = first of two Nav1.7 columns (probably TP1)
[4] = second of two Nav1.7 columns (probably TP2)

“38 (GSGIGDPVTCLKSGAICHPVFCPRRYKQIGTCGLPGTKCCKKP) [compound 38]” was tested, and the “Activity of GABA with peptide, expressed as a percentage of the reference compound” value (GABA; peptide at 0.2 μM) was 121%, the “Activity of GABA with peptide (percentage of the reference compound)” value (GABA; peptide at 20 μM) was 112% and the “Activity of TRPA1 with peptide, expressed as a percentage of the reference compound” value (TRPA1; peptide at 0.2 μM) was 138%. The “Activity of TRPA1 with peptide (percentage of the reference compound)” value (TRPA1; peptide at 20 μM) was 108%, the “Activity of a4b2 with peptide, expressed as a percentage of the reference compound” value (α4β2; peptide at 0.2 μM) was 107% and the “Activity of a4b2 with peptide (percentage of the reference compound)” value (α4β2; peptide at 20 μM) was 88%. For the same substance, the “Activity of 5HT3a with peptide (percentage of the reference compound)” value (5HT3a) was 98%, the “Activity of 5HT3a with peptide, expressed as a percentage of the reference compound” value (5HT3a) was 97% and the “Activity of Kv1.1 with peptide, expressed as a percentage of the reference compound” value (Kv1.1; peptide at 0.2 μM) was 97%. For the same substance, the “Activity of Kv1.1 with peptide (percentage of the reference compound)” value (Kv1.1; peptide at 20 μM) was 73%, the “Activity of Kv1.2 with peptide, expressed as a percentage of the reference compound” value (Kv1.2; peptide at 0.2 μM) was 100% and the “Activity of Kv1.2 with peptide (percentage of the reference compound)” value (Kv1.2; peptide at 20 μM) was 84%. The “Activity of Kv1.3 with peptide, expressed as a percentage of the reference compound” value (Kv1.3; peptide at 0.2 μM) was 101%, the “Activity of Kv1.3 with peptide (percentage of the reference compound)” value (Kv1.3; peptide at 20 μM) was 31% and the “Activity of a3b4 with peptide, expressed as a percentage of the reference compound” value (α3β4; peptide at 0.2 μM) was 99%. The “Activity of a3b4 with peptide (percentage of the reference compound)” value (α3β4; peptide at 20 μM) was 92%, the “Activity of NR2B with peptide, expressed as a percentage of the reference compound” value (NR2B; peptide at 0.2 μM) was 83% and the “Activity of NR2B with peptide (percentage of the reference compound)” value (NR2B; peptide at 20 μM) was 88%. For the same substance, the “Activity of Cav2.2 with peptide, expressed as a percentage of the reference compound” value (Cav2.2; peptide at 0.2 μM) was 117%, the “Activity of Cav2.2 with peptide (percentage of the reference compound)” value (Cav2.2; peptide at 20 μM) was 89% and the “Activity of Kv2.1 with peptide, expressed as a percentage of the reference compound” value (Kv2.1; peptide at 0.2 μM) was 100%. For the same substance, the “Activity of Kv2.1 with peptide (percentage of the reference compound)” value (Kv2.1; peptide at 20 μM) was 125%, the “Activity of Cav2.1 with peptide, expressed as a percentage of the reference compound” value (Cav2.1; peptide at 0.2 μM) was 95% and the “Activity of Cav2.1 with peptide (percentage of the reference compound)” value (Cav2.1; peptide at 20 μM) was 93%. For the same substance, the “Activity of Kir2.1 with peptide, expressed as a percentage of the reference compound” value (Kir2.1; peptide at 0.2 μM) was 88%, the “Activity of Kir2.1 with peptide (percentage of the reference compound)” value (Kir2.1; peptide at 20 μM) was 126% and the “Activity of hERG with peptide, expressed as a percentage of the reference compound” value (hERG; peptide at 0.2 μM) was 86%. For the same substance, the “Activity of hERG with peptide (percentage of the reference compound)” value (hERG; peptide at 20 μM) was 71%, the “Activity of Nav1.5 with peptide, expressed as a percentage of the reference compound” value (Nav1.5; [1]) was 124% and the “Activity of Nav1.5 with peptide, expressed as a percentage of the reference compound” value (Nav1.5; [2]) was 124%. For the same substance, the “Activity of Nav1.5 with peptide (percentage of the reference compound)” value (Nav1.5; [1]) was 107%, the “Activity of Nav1.5 with peptide (percentage of the reference compound)” value (Nav1.5; [2]) was 112% and the “Activity of Nav1.7 with peptide, expressed as a percentage of the reference compound” value (Nav1.7; [3]) was 83%. The “Activity of Nav1.7 with peptide, expressed as a percentage of the reference compound” value (Nav1.7; [4]) was 143%, the “Activity of Nav1.7 with peptide (percentage of the reference compound)” value (Nav1.7; [3]) was 86% and the “Activity of Nav1.7 with peptide (percentage of the reference compound)” value (Nav1.7; [4]) was 86%. The “Activity of NR2A with peptide, expressed as a percentage of the reference compound” value (NR2A; peptide at 0.2 μM) was 100%, the “Activity of NR2A with peptide (percentage of the reference compound)” value (NR2A; peptide at 20 μM) was 90% and the “Activity of TRPV1 with peptide, expressed as a percentage of the reference compound” value (TRPV1; peptide at 0.2 μM) was 98%. The “Activity of TRPV1 with peptide (percentage of the reference compound)” value (TRPV1; peptide at 20 μM) was 76%.
